Results on one substance are retold here after article doi:10.1101/553636.

The target of this assay is BD-Barstar D35A. Description: two-hybrid.

AD-Barnase H102A (enzyme) gave a Kd of 11 to 122 nM.

For orientation: Kd means the constant that tells how readily two partners part at equilibrium. The low end stands for higher affinity, the high end for lower affinity.
